# Assay results reported in publication PMC4971492.
# Molecular target: Bio-GFP-tagged KIF21A STALK (whole KIF21A stalk domain) (human)
# Test: single-molecule GFP counting (TIRF); HEK293T cell extracts with Bio-GFP-tagged constructs, molecules immobilised on coverslips, initial fluorescence intensities against monomeric GFP and dimeric EB1-GFP; room temperature
# Sequence of Bio-GFP-tagged KIF21A STALK (whole KIF21A stalk domain) (domain or fragment) (Q7Z4S6 whole entry, the tested form may be a part): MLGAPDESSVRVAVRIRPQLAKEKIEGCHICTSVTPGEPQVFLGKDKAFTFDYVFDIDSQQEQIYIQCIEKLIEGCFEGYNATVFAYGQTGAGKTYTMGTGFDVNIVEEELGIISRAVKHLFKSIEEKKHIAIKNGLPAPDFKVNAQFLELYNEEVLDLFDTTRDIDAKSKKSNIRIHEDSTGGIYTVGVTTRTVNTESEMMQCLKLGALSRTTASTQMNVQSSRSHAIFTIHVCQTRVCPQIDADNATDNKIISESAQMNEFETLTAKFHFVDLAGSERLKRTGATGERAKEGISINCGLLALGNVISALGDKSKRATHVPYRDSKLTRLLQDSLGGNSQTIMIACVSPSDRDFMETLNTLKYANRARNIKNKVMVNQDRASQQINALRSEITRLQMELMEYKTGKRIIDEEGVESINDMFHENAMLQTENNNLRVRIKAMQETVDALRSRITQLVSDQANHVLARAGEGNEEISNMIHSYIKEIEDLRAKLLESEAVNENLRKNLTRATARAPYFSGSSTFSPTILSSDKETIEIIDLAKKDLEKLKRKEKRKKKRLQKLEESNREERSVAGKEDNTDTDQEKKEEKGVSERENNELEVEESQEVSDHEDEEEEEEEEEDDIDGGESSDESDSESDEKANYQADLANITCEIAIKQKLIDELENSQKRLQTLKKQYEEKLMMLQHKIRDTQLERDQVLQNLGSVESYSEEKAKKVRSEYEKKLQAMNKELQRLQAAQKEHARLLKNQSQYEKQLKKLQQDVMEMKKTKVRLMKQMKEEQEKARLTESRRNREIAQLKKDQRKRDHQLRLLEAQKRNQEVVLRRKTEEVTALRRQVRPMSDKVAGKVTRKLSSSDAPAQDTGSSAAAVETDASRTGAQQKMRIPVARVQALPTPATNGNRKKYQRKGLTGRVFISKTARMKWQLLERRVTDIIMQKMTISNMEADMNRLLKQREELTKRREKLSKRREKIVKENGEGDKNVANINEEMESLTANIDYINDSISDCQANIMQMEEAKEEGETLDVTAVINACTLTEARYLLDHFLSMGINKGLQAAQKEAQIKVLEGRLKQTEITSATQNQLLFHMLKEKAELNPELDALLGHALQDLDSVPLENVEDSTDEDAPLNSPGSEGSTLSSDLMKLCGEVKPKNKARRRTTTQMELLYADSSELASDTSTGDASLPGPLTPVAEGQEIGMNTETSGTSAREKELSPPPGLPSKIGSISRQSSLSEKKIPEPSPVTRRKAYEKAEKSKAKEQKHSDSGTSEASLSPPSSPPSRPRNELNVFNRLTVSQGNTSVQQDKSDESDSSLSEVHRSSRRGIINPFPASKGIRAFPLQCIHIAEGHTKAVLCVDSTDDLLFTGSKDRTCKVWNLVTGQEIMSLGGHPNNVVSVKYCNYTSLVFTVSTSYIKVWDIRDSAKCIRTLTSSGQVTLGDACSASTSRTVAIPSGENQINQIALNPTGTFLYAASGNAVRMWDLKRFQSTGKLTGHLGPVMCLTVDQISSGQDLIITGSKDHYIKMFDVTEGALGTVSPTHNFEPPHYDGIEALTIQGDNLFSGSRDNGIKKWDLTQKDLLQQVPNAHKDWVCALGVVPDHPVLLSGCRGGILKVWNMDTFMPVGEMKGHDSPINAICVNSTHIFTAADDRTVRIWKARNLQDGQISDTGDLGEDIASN
substance,measurement,value
Bio-GFP-tagged KIF21A STALK (whole KIF21A stalk domain) (domain or fragment),stoichiometry N,2
